Assay results taken from patent US20250361317A1 (Janssen / Centocor, published 2025).

T1: human EMR2 (ADGRE2, CD312) on cells (human, UniProt Q9UHX3 24-823)
T1 construct: also called huEMR2 full length; Adhesion G protein-coupled receptor E2
T1 sequence: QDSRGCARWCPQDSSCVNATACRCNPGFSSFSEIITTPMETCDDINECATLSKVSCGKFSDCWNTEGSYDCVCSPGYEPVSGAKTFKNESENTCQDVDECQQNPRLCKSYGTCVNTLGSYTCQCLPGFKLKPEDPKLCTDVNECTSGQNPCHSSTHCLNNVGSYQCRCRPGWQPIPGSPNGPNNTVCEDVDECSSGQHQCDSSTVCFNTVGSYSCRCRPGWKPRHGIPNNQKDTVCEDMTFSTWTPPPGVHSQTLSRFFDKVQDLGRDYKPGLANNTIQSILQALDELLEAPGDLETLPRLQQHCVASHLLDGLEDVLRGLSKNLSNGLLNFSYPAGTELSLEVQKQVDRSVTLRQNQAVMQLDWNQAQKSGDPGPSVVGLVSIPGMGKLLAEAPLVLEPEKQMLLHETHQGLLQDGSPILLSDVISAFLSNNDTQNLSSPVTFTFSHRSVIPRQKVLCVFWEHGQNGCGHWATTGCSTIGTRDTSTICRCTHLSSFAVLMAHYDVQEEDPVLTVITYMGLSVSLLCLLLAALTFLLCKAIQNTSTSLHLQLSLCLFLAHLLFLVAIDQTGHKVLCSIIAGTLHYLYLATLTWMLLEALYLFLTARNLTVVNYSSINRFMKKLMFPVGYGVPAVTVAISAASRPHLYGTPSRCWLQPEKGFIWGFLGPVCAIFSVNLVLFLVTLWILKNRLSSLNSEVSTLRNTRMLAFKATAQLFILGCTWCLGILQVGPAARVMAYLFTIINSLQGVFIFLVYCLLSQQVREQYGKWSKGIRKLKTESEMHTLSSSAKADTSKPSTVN

T2: EMR2W4, huEMR2 GAIN domain + GPS, D261-T540, with C-terminal Avi/6x His tag (human)
T2 construct: also called Human EMR2 GAIN domain protein
T2 chain: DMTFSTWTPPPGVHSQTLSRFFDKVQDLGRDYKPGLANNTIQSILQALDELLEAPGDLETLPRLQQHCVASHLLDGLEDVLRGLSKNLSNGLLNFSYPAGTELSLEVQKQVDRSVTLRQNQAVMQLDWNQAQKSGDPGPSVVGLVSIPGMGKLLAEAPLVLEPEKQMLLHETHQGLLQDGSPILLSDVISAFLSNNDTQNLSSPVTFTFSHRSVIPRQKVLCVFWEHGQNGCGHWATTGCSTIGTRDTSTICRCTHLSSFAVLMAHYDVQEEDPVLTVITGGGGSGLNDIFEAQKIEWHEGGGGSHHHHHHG


Key:
[1] = biological target: T1, human EMR2 (ADGRE2, CD312) on cells; experiment: flow cytometry, median AF647 of live cells, MOLM 13 cells, 1 hour at 37 C
[2] = biological target: T3, T-cell receptor with TRBV19 (Vβ17) beta chain on human T cells (human); experiment: flow cytometry, % TRBV19+ T cells of live human pan-T cells, 1 hour at 37 C
T3 construct: whole, on cells; also called Vb17; TRBV19+ T cells
T3 sequence (A0A075B6N1 22-114): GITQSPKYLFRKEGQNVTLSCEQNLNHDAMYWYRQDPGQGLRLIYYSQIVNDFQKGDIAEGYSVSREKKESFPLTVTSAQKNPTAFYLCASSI

[3] = biological target: T1, human EMR2 (ADGRE2, CD312) on cells; experiment: flow cytometry, median AF647 of live cells, OCI-AML5 WT cells, 1 hour at 37 C
[4] = biological target: T2, EMR2W4, huEMR2 GAIN domain + GPS, …; experiment: SPR, row 'SPR (KD) / EMR2' of the Forced Degradation table; stress condition of the KD and EMR2 construct not named on the sheet

Binder	EC50 [1] [nM]	Max (MFI) [1] [MFI]	EC50 [2] [nM]	Max % TRV19+ [2] [%]	EC50 [3] [nM]	Max (MFI) [3] [MFI]	Kd [4] [nM]
EMVBB27 (bispecific antibody, human IgG1, kappa, L234A L235A, also called EMVBB27.003; TPP000263194) heavy chain 1 (Vb17 arm, B17B21-LC-N33S Fab): QVQLQESGPGLVKPSETLSLTCTVSGYSITSGYFWNWIRQPPGKGLEWIGYISYDGSNNYNPSLKSRVTISRDTSKNQFSLKLSSVTAADTAVYYCASPSPGTGYAVDYWGQGTLVTVSSASTKGPSVFPLAPSSKSTSGGTAALGCLVKDYFPEPVTVSWNSGALTSGVHTFPAVLQSSGLYSLSSVVTVPSSSLGTQTYICNVNHKPSNTKVDKKVEPKSCDKTHTCPPCPAPEAAGGPSVFLFPPKPKDTLMISRTPEVTCVVVSVSHEDPEVKFNWYVDGVEVHNAKTKPREEQYNSTYRVVSVLTVLHQDWLNGKEYKCKVSNKALPAPIEKTISKAKGQPREPQVYTLPPSREEMTKNQVSLWCLVKGFYPSDIAVEWESNGQPENNYKTTPPVLDSDGSFFLYSKLTVDKSRWQQGNVFSCSVMHEALHNRFTQKSLSLSPGK light chain 1 (Vb17 arm, B17B21-LC-N33S Fab): DIQMTQSPSSLSASVGDRVTITCRSSQSLVHSSGNTYLHWYQQKPGKAPKFLIYKVSNRFSGVPSRFSGSGSGTDFTLTISSLQPEDFATYYCSQSTHVPFTFGQGTKLEIKRTVAAPSVFIFPPSDEQLKSGTASVVCLLNNFYPREAKVQWKVDNALQSGNSQESVTEQDSKDSTYSLSSTLTLSKADYEKHKVYACEVTHQGLSSPVTKSFNRGEC heavy chain 2 (EMR2 arm, EMR2B57-LH-spFv fused to Fc): QSALTQPASVSGSPGQSITISCTGTSSDVGGYNYVSWYQQHPGCAPKLMIYEVSYRPSGVSNRFSGSKSGNTASLTISGLQAEDEADYYCSSYTSSSTYVVFGGGTKLTVLGGGSGGSGGCPPCGGSGGEVQLVESGGGLVQPGGSLRLSCAASGFTFRSYWMHWVRQAPGKGLVWVSRISSGGSTTNYADSVKGRFTISRDNAKNTLYLQMNSLRAEDTAIYYCARGDNYYDSPYFDYWGCGTLVTVSSEPKSSDKTHTCPPCPAPEAAGGPSVFLFPPKPKDTLMISRTPEVTCVVVSVSHEDPEVKFNWYVDGVEVHNAKTKPREEQYNSTYRVVSVLTVLHQDWLNGKEYKCKVSNKALPAPIEKTISKAKGQPREPQVYTLPPSREEMTKNQVSLSCAVKGFYPSDIAVEWESNGQPENNYKTTPPVLDSDGSFFLVSKLTVDKSRWQQGNVFSCSVMHEALHNHYTQKSLSLSPGK	301	420000	8.03	6.62	296	250000	
EMVBB6 (bispecific antibody, human IgG1, lambda, L234A L235A, also called TPP000258023) heavy chain 1 (Vb17 arm, B17B852-G34R-LH-spFv fused to Fc): DIQMTQSPSSLSASVGDRVTITCRSSQSLVHSNRNTYLHWYQQKPGCAPKLLIYKVSNRFSGVPSRFSGSGSGTDFTLTISSLQPEDFATYYCSQSTHVPFTFGQGTKLEIKGGGSGGSGGCPPCGGSGGQVQLQESGPGLVKPSETLSLTCTVSGYSITSGYFWNWIRQFPGKGLEWMGYISYDGSNNYNPSLKSRITISRDTSKNQFSLKLSSVTAADTAVYYCASPSPGTGYAVDYWGCGTTVTVSSEPKSSDKTHTCPPCPAPEAAGGPSVFLFPPKPKDTLMISRTPEVTCVVVSVSHEDPEVKFNWYVDGVEVHNAKTKPREEQYNSTYRVVSVLTVLHQDWLNGKEYKCKVSNKALPAPIEKTISKAKGQPREPQVYTLPPSREEMTKNQVSLWCLVKGFYPSDIAVEWESNGQPENNYKTTPPVLDSDGSFFLYSKLTVDKSRWQQGNVFSCSVMHEALHNHYTQKSLSLSPGK heavy chain 2 (EMR2 arm, EMR2B361 Fab): EVQLVQSGGGLVKPGGSLRLSCVASGFIFRSYSMNWVRQAPGKGLEWVSSISSSSSYIYYADSVKGRFTISRDNAKNSLYLQMDSLRAEDTAVYYCARREYGGPFDYWGQGTLVTVSSASTKGPSVFPLAPSSKSTSGGTAALGCLVKDYFPEPVTVSWNSGALTSGVHTFPAVLQSSGLYSLSSVVTVPSSSLGTQTYICNVNHKPSNTKVDKKVEPKSCDKTHTCPPCPAPEAAGGPSVFLFPPKPKDTLMISRTPEVTCVVVSVSHEDPEVKFNWYVDGVEVHNAKTKPREEQYNSTYRVVSVLTVLHQDWLNGKEYKCKVSNKALPAPIEKTISKAKGQPREPQVYTLPPSREEMTKNQVSLSCAVKGFYPSDIAVEWESNGQPENNYKTTPPVLDSDGSFFLVSKLTVDKSRWQQGNVFSCSVMHEALHNRFTQKSLSLSPGK light chain 2 (EMR2 arm, EMR2B361 Fab): QSVLTQPPSVFAAPGEKVTISCSGSSSNIGNDYVSWYQQLPGTAPKLLIYDNNKRPSGIPDRFSGSKSGTSATLGITGLQTGDEADYYCGTWDSSLSAGYVFGTGTKVTVLGQPKAAPSVTLFPPSSEELQANKATLVCLISDFYPGAVTVAWKADSSPVKAGVETTTPSKQSNNKYAASSYLSLTPEQWKSHRSYSCQVTHEGSTVEKTVAPTECS	12.6	330000	14.5	9.15	15.2	250000	0.186
EMVBB7 (bispecific antibody, human IgG1, lambda, L234A L235A, also called TPP000258024) heavy chain 1 (Vb17 arm, B17B852-G34R-LH-spFv fused to Fc): DIQMTQSPSSLSASVGDRVTITCRSSQSLVHSNRNTYLHWYQQKPGCAPKLLIYKVSNRFSGVPSRFSGSGSGTDFTLTISSLQPEDFATYYCSQSTHVPFTFGQGTKLEIKGGGSGGSGGCPPCGGSGGQVQLQESGPGLVKPSETLSLTCTVSGYSITSGYFWNWIRQFPGKGLEWMGYISYDGSNNYNPSLKSRITISRDTSKNQFSLKLSSVTAADTAVYYCASPSPGTGYAVDYWGCGTTVTVSSEPKSSDKTHTCPPCPAPEAAGGPSVFLFPPKPKDTLMISRTPEVTCVVVSVSHEDPEVKFNWYVDGVEVHNAKTKPREEQYNSTYRVVSVLTVLHQDWLNGKEYKCKVSNKALPAPIEKTISKAKGQPREPQVYTLPPSREEMTKNQVSLWCLVKGFYPSDIAVEWESNGQPENNYKTTPPVLDSDGSFFLYSKLTVDKSRWQQGNVFSCSVMHEALHNHYTQKSLSLSPGK heavy chain 2 (EMR2 arm, EMR2B410 Fab): EVQLVESGGGLVQPGGSLRLSCAASGFTFSSYWMHWVRQVPGKGLVWVSRISSHGSSTSYADSVKGRFTISRDNAKNALYLQMNSLRAEDTAVYYCARGGNYYDSPYFDYWGQGTLVTVSSASTKGPSVFPLAPSSKSTSGGTAALGCLVKDYFPEPVTVSWNSGALTSGVHTFPAVLQSSGLYSLSSVVTVPSSSLGTQTYICNVNHKPSNTKVDKKVEPKSCDKTHTCPPCPAPEAAGGPSVFLFPPKPKDTLMISRTPEVTCVVVSVSHEDPEVKFNWYVDGVEVHNAKTKPREEQYNSTYRVVSVLTVLHQDWLNGKEYKCKVSNKALPAPIEKTISKAKGQPREPQVYTLPPSREEMTKNQVSLSCAVKGFYPSDIAVEWESNGQPENNYKTTPPVLDSDGSFFLVSKLTVDKSRWQQGNVFSCSVMHEALHNRFTQKSLSLSPGK light chain 2 (EMR2 arm, EMR2B410 Fab): QSALTQPASVSGSPGQSITISCTGTSSDVGGYNYVSWYQQHPGKAPKLMIYEVSYRPSGISNRFSGSKSGDTASLTISGLQAEDEADYYCSSYTSSSTYVVFGGGTKVTVLGQPKAAPSVTLFPPSSEELQANKATLVCLISDFYPGAVTVAWKADSSPVKAGVETTTPSKQSNNKYAASSYLSLTPEQWKSHRSYSCQVTHEGSTVEKTVAPTECS							1.47
